Patent US20190300967

System: high-mobility group box 1 (HMGB1)
Sequence (chain, as listed by the source): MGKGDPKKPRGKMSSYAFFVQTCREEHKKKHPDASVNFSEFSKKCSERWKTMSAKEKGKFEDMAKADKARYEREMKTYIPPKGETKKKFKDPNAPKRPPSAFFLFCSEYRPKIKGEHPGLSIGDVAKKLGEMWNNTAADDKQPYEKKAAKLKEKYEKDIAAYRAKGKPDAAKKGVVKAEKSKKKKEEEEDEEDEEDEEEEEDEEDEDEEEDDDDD

In the case of MAGE-A3/6-TRIM28 E3 ubiquitin ligase, the “in vitro ubiquitination reactions on protein microarrays containing >9000 recombinant proteins (screen for direct substrates of MAGE-A)” value was “As a significantly ubiquitinated target of the MAGE-TRIM28 complex, high-mobility group box 1 (HMGB1) emerged”.
